Positions count from the first letter of the chain named.
Assays:
[1] = biological target: T1, TNF-R2 (a protein having the amino acid sequence, Accession No. M55994 registered at GENBANK) (UniProt P20333 23-257, limits assumed); test: SPR (BIACORE 2000), receptor on sensor tip; grade 3 = 0.5 to 2 times that of recombinant TNF-α
T1 construct: also called TNF receptor with 75 kilo daltons
T1 sequence (looked up): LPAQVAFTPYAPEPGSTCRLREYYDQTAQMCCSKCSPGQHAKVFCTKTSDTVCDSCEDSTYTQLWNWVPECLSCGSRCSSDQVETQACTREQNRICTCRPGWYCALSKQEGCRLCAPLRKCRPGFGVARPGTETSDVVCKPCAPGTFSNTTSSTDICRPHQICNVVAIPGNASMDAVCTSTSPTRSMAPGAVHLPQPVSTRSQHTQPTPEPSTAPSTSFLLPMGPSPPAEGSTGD
From the text: (§1) Using the above detector based on surface plasmon resonance effect again, the resulting clones binding to TNF-R1 (or TNF-R2) were subjected to the remaining sensor tip conjugated with TNF-R2 (or TNF-R1) to measure receptor binding affinity and select clones having a variation of receptor binding affinity. […] The resulting DNAs were digested with restrict enzymes NdeI and BamHI to obtain DNA fragments. The resulting DNA fragments were introduced into a plasmid vector containing T7 promoter region, T7 terminator region, ampicillin resistant gene region and ColE1/Ori region (product name “pET-3a”, manufactured by “Novagen®” (EMD Biosciences, Inc.)) at the position of the above restriction sites. The resulting plasmid was introduced into E. coli BL21DE3 strain to obtain a transformed E. coli for producing the TNF mutant proteins. The obtained transformed E. coli was cultured according to usual method and centrifuged to collect E. coli pellet. The resulting pellet was washed twice with TES buffer (pH 8.0) (20 mM Tris-HCl, 10 mM ethylene diamine tetraacetic acid and 0.5 M sodium chloride) and admixed with TES buffer (pH 8.0) containing 0.2 mg/ml lysozyme. The resulting suspension was sonicated according to usual manner, and centrifuged to collect a precipitate containing the produced TNF mutant protein. The resulting precipitate was treated three times in a manner of admixing with TES buffer containing 1 (w/w) % Triton X-100, removed from supernatant by centrifuging, admixed with 50 mM Tris-HCl (pH 7.0) containing 8 M guanidine hydrochloride and 50 mM dithiothreitol, with stirring for 16 hours at ambient temperature under shielded condition, and centrifuged to collect a supernatant. The resulting supernatant was gently admixed with 100 time volumes of a aqueous solution containing 1 M Tris, 0.9 (w/v) % sodium chloride, 0.4 M L-arginine chloride, 2.5 mM reduced glutathione, 0.5 mM oxidized glutathione and 0.05 (w/v) % Tween 20, and kept at 4° C. for 16 hours.

[2] = biological target: T2, TNF-R1 (a protein having the amino acid sequence, Accession No. M58286 registered at GENBANK) (UniProt P19438 30-211, limits assumed); test: as above
T2 construct: also called TNF receptor having a molecular weight of 55 kilo daltons
T2 sequence (looked up): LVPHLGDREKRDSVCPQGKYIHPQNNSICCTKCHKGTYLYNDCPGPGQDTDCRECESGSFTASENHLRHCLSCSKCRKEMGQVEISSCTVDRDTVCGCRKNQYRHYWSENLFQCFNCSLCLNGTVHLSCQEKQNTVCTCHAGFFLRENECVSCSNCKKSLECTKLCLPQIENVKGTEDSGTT
From the text: as §1

[3] = biological target: T1, TNF-R2 (a protein having the amino acid …); test: SPR (BIACORE 2000), receptor on sensor tip; grade 0 = weakened to 0.001 or less of that of recombinant TNF-α
From the text: as §1

[4] = biological target: T2, TNF-R1 (a protein having the amino acid …); test: SPR (BIACORE 2000), receptor on sensor tip; grade 1 = 0.001 to 0.1 time that of recombinant TNF-α
From the text: as §1

[5] = biological target: T1, TNF-R2 (a protein having the amino acid …); test: SPR (BIACORE 2000), receptor on sensor tip; grade 4 = two times or more that of recombinant TNF-α
From the text: as §1

[6] = biological target: T2, TNF-R1 (a protein having the amino acid …); test: SPR (BIACORE 2000), receptor on sensor tip; grade 2 = 0.5 to 0.1 time that of recombinant TNF-α
From the text: as §1

[7] = biological target: T1, TNF-R2 (a protein having the amino acid …); test: SPR (BIACORE 2000), receptor on sensor tip; grade 1 = 0.001 to 0.1 time that of recombinant TNF-α
From the text: as §1

[8] = biological target: T2, TNF-R1 (a protein having the amino acid …); test: SPR (BIACORE 2000), receptor on sensor tip; grade 4 = two times or more that of recombinant TNF-α
From the text: as §1

[9] = biological target: T2, TNF-R1 (a protein having the amino acid …); test: SPR (BIACORE 2000), receptor on sensor tip; grade 0 = weakened to 0.001 or less of that of recombinant TNF-α
From the text: as §1

TNF-R1 on L-M cells = biological target: T3, TNF-R1 on L-M cells (mouse, UniProt P25118 30-454); test: cell-based or functional assay
T3 sequence (looked up): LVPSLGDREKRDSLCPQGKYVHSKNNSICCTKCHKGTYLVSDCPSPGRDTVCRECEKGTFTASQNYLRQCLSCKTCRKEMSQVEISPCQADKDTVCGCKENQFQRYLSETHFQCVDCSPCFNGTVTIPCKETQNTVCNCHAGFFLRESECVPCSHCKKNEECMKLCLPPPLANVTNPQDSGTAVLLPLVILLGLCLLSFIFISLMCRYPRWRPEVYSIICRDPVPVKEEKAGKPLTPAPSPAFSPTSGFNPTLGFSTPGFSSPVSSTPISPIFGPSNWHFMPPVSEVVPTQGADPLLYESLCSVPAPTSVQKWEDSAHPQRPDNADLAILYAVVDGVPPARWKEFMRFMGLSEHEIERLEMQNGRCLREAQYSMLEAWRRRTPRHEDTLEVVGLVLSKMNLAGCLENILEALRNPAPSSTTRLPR

TNF-R1 on HEp-2 cells = biological target: T4, TNF-R1 on HEp-2 cells (human, UniProt P19438 30-455); test: cell-based or functional assay
T4 sequence (looked up): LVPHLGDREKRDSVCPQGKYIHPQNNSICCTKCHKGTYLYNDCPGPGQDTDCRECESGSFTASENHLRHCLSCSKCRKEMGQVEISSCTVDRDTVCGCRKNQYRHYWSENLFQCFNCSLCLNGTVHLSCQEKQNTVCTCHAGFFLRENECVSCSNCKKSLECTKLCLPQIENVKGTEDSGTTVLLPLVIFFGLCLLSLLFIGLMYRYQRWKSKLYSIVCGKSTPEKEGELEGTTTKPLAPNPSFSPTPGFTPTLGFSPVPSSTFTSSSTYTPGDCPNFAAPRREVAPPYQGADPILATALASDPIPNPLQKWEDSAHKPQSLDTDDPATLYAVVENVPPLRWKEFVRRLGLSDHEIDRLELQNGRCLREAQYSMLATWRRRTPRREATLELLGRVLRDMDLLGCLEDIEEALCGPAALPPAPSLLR

B1: lysine-replaced human TNF (ligand)
chain: VRSSSRTPSDMPVAHVVANPQAEGQLQWLNRRANALLANGVELRDNQLVVPSEGLYLIYSQVLFSGQGCPSTHVLLTHTISRIAVSYQTPVNLLSAIRSPCQRETPEGAEANPWYEPIYLGGVFQLEPGDRLSAEINRPDYLDFAESGQVYFGIIAL
notes: Parent of all clones; also called Lysine-replaced TNF; lysine-replaced mutant
- binding affinity relative to recombinant TNF-α [1]: 0.5 to 2 fold
- binding affinity relative to recombinant TNF-α [2]: 0.5 to 2 fold

B2: TNF mutant protein of clone No. 4 (ligand)
chain: B1 chain with L29K, R31A, R32G, E146S, S147T
notes: Mutant of lysine-replaced TNF, made in E. coli
- binding affinity relative to recombinant TNF-α [2]: 0.5 to 2 fold
- binding affinity relative to recombinant TNF-α (grade) [3]: ≤ 0.001 times that of recombinant TNF-α

B3: TNF mutant protein of clone No. 10 (ligand)
chain: B1 chain with A145K, E146D, S147T
notes: as for B2
- binding affinity relative to recombinant TNF-α [4]: 0.001 to 0.1 fold
- binding affinity relative to recombinant TNF-α [5]: ≥ 2 fold

B4: TNF mutant protein of clone No. 14 (ligand)
chain: B1 chain with E146N, S147D
notes: as for B2
- binding affinity relative to recombinant TNF-α [1]: 0.5 to 2 fold
- binding affinity relative to recombinant TNF-α [6]: 0.1 to 0.5 fold

B5: TNF mutant protein of clone No. 5 (ligand)
chain: B1 chain with L29R, R31S, R32H, A145S, E146G, S147T
notes: as for B2
- binding affinity relative to recombinant TNF-α [2]: 0.5 to 2 fold
- binding affinity relative to recombinant TNF-α (grade) [3]: ≤ 0.001 times that of recombinant TNF-α

B6: TNF mutant protein of clone No. 15 (ligand)
chain: B1 chain with A84T, V85N, S86H, Q88S, T89N
- binding affinity relative to recombinant TNF-α [6]: 0.1 to 0.5 fold
- binding affinity relative to recombinant TNF-α [7]: 0.001 to 0.1 fold

B7: TNF mutant protein of clone No. 13 (ligand)
chain: B1 chain with E146D, S147D
notes: as for B2
- binding affinity relative to recombinant TNF-α [6]: 0.1 to 0.5 fold
- binding affinity relative to recombinant TNF-α [5]: ≥ 2 fold

B8: TNF mutant protein of clone No. 31 (ligand)
chain: B1 chain with A84S, V85K, S86T, Q88S, T89H
notes: as for B2
- binding affinity relative to recombinant TNF-α [1]: 0.5 to 2 fold
- binding affinity relative to recombinant TNF-α [8]: ≥ 2 fold

B9: TNF mutant protein of clone No. 11 (ligand)
chain: B1 chain with A145R, E146T, S147D
notes: as for B2
- binding affinity relative to recombinant TNF-α [1]: 0.5 to 2 fold
- binding affinity relative to recombinant TNF-α (grade) [9]: ≤ 0.001 times that of recombinant TNF-α

B10: TNF mutant protein of clone No. 12 (ligand)
chain: B1 chain with A145R, S147T
notes: as for B2
- binding affinity relative to recombinant TNF-α [1]: 0.5 to 2 fold
- binding affinity relative to recombinant TNF-α [4]: 0.001 to 0.1 fold

B11: TNF mutant protein of clone No. 35 (ligand)
chain: B1 chain with A84T, V85P, S86A, Y87I, Q88N, T89R
notes: Mutant of lysine-replaced TNF, made in E. coli; also called TNF antagonist of clone No. 35
- binding affinity relative to recombinant TNF-α [8]: ≥ 2 fold
- binding affinity relative to recombinant TNF-α (grade) [3]: ≤ 0.001 times that of recombinant TNF-α
- Viability (%) of L-M cells, 10 ng/ml TNF-α + 1,000 ng/ml TNF antagonist (17 without antagonist) (TNF-R1 on L-M cells): 43%
- Viability (%) of L-M cells, 10 ng/ml TNF-α + 10,000 ng/ml TNF antagonist (17 without antagonist) (TNF-R1 on L-M cells): 58%
- Viability (%) of L-M cells, 10 ng/ml TNF-α + 100,000 ng/ml TNF antagonist (17 without antagonist) (TNF-R1 on L-M cells): 61%
- Viability (%) of L-M cells, 10 ng/ml TNF-α + 500,000 ng/ml TNF antagonist (17 without antagonist) (TNF-R1 on L-M cells): 64%
- Viability (%) of HEp-2 cells, 10 ng/ml TNF-α + 1,000 ng/ml TNF antagonist (9 without antagonist) (TNF-R1 on HEp-2 cells): 10%
- Viability (%) of HEp-2 cells, 10 ng/ml TNF-α + 10,000 ng/ml TNF antagonist (9 without antagonist) (TNF-R1 on HEp-2 cells): 18%
- Viability (%) of HEp-2 cells, 10 ng/ml TNF-α + 100,000 ng/ml TNF antagonist (9 without antagonist) (TNF-R1 on HEp-2 cells): 86%
- Viability (%) of HEp-2 cells, 10 ng/ml TNF-α + 500,000 ng/ml TNF antagonist (9 without antagonist) (TNF-R1 on HEp-2 cells): 103%

— patent US20100222258A1 (KABUSHIKI KAISHA HAYASHIBARA SEIBUTSU KAGAKU KENKYUJO, published 2010)
